Data published in patent US20140017269A1 (CHILDREN S HOSPITAL MEDICAL CENTER, published 2014).

How the values were obtained:
[1] = biological target: the molecule itself; assay: gel filtration; self-association
[2] = biological target: the molecule itself; assay: gel filtration chromatography (self-association)
[3] = biological target: the molecule itself; assay: gel filtration and EM; self-association
[4] = biological target: the molecule itself; assay: form of the immunogen as described; self-association
[5] = biological target: the molecule itself; assay: gel filtration; self-association; remark: listed apart in the source

B1: NoV P polypeptide (NoV P^-) of Norovirus VA387 (GII.4) (other)
chain: SRTKPFTVPILTVEEMSNSRFPIPLEKLYTGPSSAFVVQPQNGRCTTDGVLLGTTQLSAVNICTFRGDVTHIAGSHDYIMNLASQNWNNYDPTEEIPAPLGTPDFVGKIQGMLTQTTREDGSTRAHKATVSTGSVHFTPKLGSVQYTTDTNNDLQTGQNTKFTPVGVIQDGNNHQNEPQQWVLPNYSGRTGHNVHLAPAVAPTFPGEQLLFFRSTMPGCSGYPNMNLDCLLPQEWVQHFYQEAAPAQSDVALLRFVNPDTGRVLFECKLHKSGYVTVAHTGPHDLVIPPNGYFRFDSWVNQFYTLAPMGNGAGR
notes: ~34.5 kDa monomer, ~69 kDa dimer; also called free NoV P^- dimer
B1: binds [1].

B2: Rotavirus VP8* (other)
chain: LDGPYQPTTFTPPTDYWILINSNTNGVVYESTNNSDFWTAVIAVEPHVNPVDRQYNVFGENKQFNVRNDSDKWKFLEMFRGSSQNDFYNRRTLTSDTRLVGILKYGGRIWTFHGETPRATTDSSNTANLNGISITIHSEFYIIPRSQESKCNEYINNGL
notes: ~18 kDa monomer; also called free VP8* monomer
B2: no binding [2].

B3: NoV P^- (387)-NoV P^- (207) fusion protein (other)
chain: SRTKPFTVPILTVEEMSNSRFPIPLEKLYTGPSSAFVVQPQNGRCTTDGVLLGTTQLSAVNICTFRGDVTHIAGSHDYIMNLASQNWNNYDPTEEIPAPLGTPDFVGKIQGMLTQTTREDGSTRAHKATVSTGSVHFTPKLGSVQYTTDTNNDLQTGQNTKFTPVGVIQDGNNHQNEPQQWVLPNYSGRTGHNVHLAPAVAPTFPGEQLLFFRSTMPGCSGYPNMNLDCLLPQEWVQHFYQEAAPAQSDVALLRFVNPDTGRVLFECKLHKSGYVTVAHTGPHDLVIPPNGYFRFDSWVNQFYTLAPMGNGAGRGGGGGGGGGGGGSKTKAFTIPVLKISEMTNSRFPVPVDQMYTSRSEGIVVQPQNGRATIDGELLGTTLVSPVSVCNFKGNLQAEVPGQHQLYQLQLTNLDGSPIDPTDDTPGPLGCPDFTGLLYGVASQRGPGDATRAHEARIDTGSDTFAPKIGQVRFYSTSSDFETNQPTHFTPIGIYIEGNSSDFNQWQLPRYGGHLANNNHLAPAVSPLFPGEQILFFRSFIPGASGHTNGEMDCLLPQEFVQHFYQEAATARSEVALLRFVNPDTGRALFESKLHKQGFMTIASSGDHPIIMPTNGYFRFEAWVNQFYSLAPVGTGSGR
notes: also called NoV P^-(GII.4)-NoV P^-(GII.9)
B3: binds [3].

B4: NoV P^- (387)-NoV P^- (115) fusion protein (other)
chain: SRTKPFTVPILTVEEMSNSRFPIPLEKLYTGPSSAFVVQPQNGRCTTDGVLLGTTQLSAVNICTFRGDVTHIAGSHDYIMNLASQNWNNYDPTEEIPAPLGTPDFVGKIQGMLTQTTREDGSTRAHKATVSTGSVHFTPKLGSVQYTTDTNNDLQTGQNTKFTPVGVIQDGNNHQNEPQQWVLPNYSGRTGHNVHLAPAVAPTFPGEQLLFFRSTMPGCSGYPNMNLDCLLPQEWVQHFYQEAAPAQSDVALLRFVNPDTGRVLFECKLHKSGYVTVAHTGPHDLVIPPNGYFRFDSWVNQFYTLAPMGNGAGRGGGGGGGGGGGGQKTKPFSVPNLPLNTLSNSRVPSLIRSMMVSRDHGQMVQFQNGRVTLDGQLQGTTPTSASQLCKIRGSVFHANGGNGYTLTELDGSPYHAFESPAPIGFPDLGECDWHMEASPTTQFDTGDVIKQINVKQEAAFAPHLGTIQADGLSDVSVNTNMIAKLGWVSPASDGHRGNVDPWVIPRYGSTLTEAAQLAPPIYPPGFGEAIVFFMSDFPIAHGANGLSVPCTIPQEFVTHFVNEQAPTRGEAALLHYLDPDTHRNLGEFKLYPEGFMTCVPNSSGTGPQTLPINGVFVFVSWVSRFYQLKPVGTAGPARSLGI
B4: binds [4].

B5: NoV P^--VP8* (C-end) protein (other)
chain: SRTKPFTVPILTVEEMSNSRFPIPLEKLYTGPSSAFVVQPQNGRCTTDGVLLGTTQLSAVNICTFRGDVTHIAGSHDYIMNLASQNWNNYDPTEEIPAPLGTPDFVGKIQGMLTQTTREDGSTRAHKATVSTGSVHFTPKLGSVQYTTDTNNDLQTGQNTKFTPVGVIQDGNNHQNEPQQWVLPNYSGRTGHNVHLAPAVAPTFPGEQLLFFRSTMPGCSGYPNMNLDCLLPQEWVQHFYQEAAPAQSDVALLRFVNPDTGRVLFECKLHKSGYVTVAHTGPHDLVIPPNGYFRFDSWVNQFYTLAPMGNGAGRGGGGGGGGGGGGLDGPYQPTTFTPPTDYWILINSNTNGVVYESTNNSDFWTAVIAVEPHVNPVDRQYNVFGENKQFNVRNDSDKWKFLEMFRGSSQNDFYNRRTLTSDTRLVGILKYGGRIWTFHGETPRATTDSSNTANLNGISITIHSEFYIIPRSQESKCNEYINNGL
notes: Thrombin-cleaved product; ~52 kDa monomer, ~100 kDa dimer; also called free NoV P^--VP8* dimer
B5: binds [5].

B6: NoV P domain-RGDCFC (NoV P^+) of Norovirus VA387 (GII.4) (other)
chain: SRTKPFTVPILTVEEMSNSRFPIPLEKLYTGPSSAFVVQPQNGRCTTDGVLLGTTQLSAVNICTFRGDVTHIAGSHDYIMNLASQNWNNYDPTEEIPAPLGTPDFVGKIQGMLTQTTREDGSTRAHKATVSTGSVHFTPKLGSVQYTTDTNNDLQTGQNTKFTPVGVIQDGNNHQNEPQQWVLPNYSGRTGHNVHLAPAVAPTFPGEQLLFFRSTMPGCSGYPNMNLDCLLPQEWVQHFYQEAAPAQSDVALLRFVNPDTGRVLFECKLHKSGYVTVAHTGPHDLVIPPNGYFRFDSWVNQFYTLAPMGNGAGRRRALCDCRGDCFC
notes: Mainly the 24mer P particle (~830 kDa), with a low portion (~5%) of P dimer; also called P-RGDCFC
B6: binds [3].

B7: HEV P domain (protruding domain of hepatitis E virus) (other)
chain: TPSPAPSRPFSVLRANDVLWLSLTAAEYDQTTYGSSTNPMYVSDTVTFVNVATGAQAVARSLDWSKVTLDGRPLTTIQQYSKTFYVLPLRGKLSFWEASTTKAGYPYNYNTTASDQILIENAAGHRVAISTYTTSLGAGPTSISAVGVLAPHSALAALEDTVDYPCDCRGDCFC
notes: released from GST-HEV P by thrombin; ~19 kDa monomer, ~38 kDa dimer
B7: binds [1].
